From CN1618813A (SHANGHAI HUMAN GENOME RES CT, dated 2005)

Biological target: T1, 甲状腺素受体相互作用蛋白15 (thyroid receptor interacting protein 15, TRIP15) (human, UniProt P61201 1-443)
T1 construct: Purified prokaryotic expression product of the TRIP15 gene; also called TRIP15蛋白; 人TRIP15蛋白
Assay: indirect ELISA, phage antibody on purified TRIP15 antigen

T1 sequence (P61201 whole entry): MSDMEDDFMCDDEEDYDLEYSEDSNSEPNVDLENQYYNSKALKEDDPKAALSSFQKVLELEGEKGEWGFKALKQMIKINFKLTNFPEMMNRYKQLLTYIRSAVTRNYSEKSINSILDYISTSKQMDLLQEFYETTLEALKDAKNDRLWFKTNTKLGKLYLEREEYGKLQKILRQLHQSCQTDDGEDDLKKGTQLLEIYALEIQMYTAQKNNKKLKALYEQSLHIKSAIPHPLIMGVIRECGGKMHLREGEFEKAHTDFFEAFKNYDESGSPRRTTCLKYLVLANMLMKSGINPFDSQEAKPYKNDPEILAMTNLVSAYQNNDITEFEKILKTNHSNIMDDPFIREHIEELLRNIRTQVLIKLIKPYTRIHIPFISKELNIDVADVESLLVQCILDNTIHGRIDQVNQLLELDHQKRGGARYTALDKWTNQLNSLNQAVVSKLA

B1: 抗TRIP15噬菌体抗体 (anti-TRIP15 phage-displayed human single-chain antibody, positive clone) (scFv, V domains shown)
VH: EVQLLESGGGLVQPGGSLRLSCAASGFTFSSYAMSWVRQAPGKGLEWVSSISNDGLKTLYADSVKGRFTISRDNSKNTLYLQMNSLRAEDTAVYYCAKNTGSFDYWGQGTLVTV
VL: DIQMTQSPSSLSASVGDRVTITCRASQSISSYLNWYQQKPGKAPKLLIYRASNLQSGVPSRFSGSGSGTDFTLTISSLQPEDFATYYCQQVLRRPATFGQGTKVEIKR
notes: also called 阳性克隆的噬菌体抗体; 针对TRIP15抗原的scFv
binding result: binds
